B1: Cell division control protein 13 (Saccharomyces cerevisiae), P32797 (parent)
chain: MDTLEEPECPPHKNRIFVSSSKDFEGYPSKAIVPVQFVALLTSIHLTETKCLLGFSNFERRGDQSQEDQYLIKLKFKDRGSERLARITISLLCQYFDIELPDLDSDSGASPTVILRDIHLERLCFSSCKALYVSKHGNYTLFLEDIKPLDLVSVISTISTKSTNSSKHSSSELISECDLNNSLVDIFNNLIEMNRDEKNRFKFVKLIHYDIELKKFVQDQQKVLSQKSKAAAINPFFVPNRLGIPYIESQNEFNSQLMTLNVDEPTTDISNMGEEMHDSADPIEDSDSSTTSSTGKYFSSKSYIQSQTPERKTSVPNNWHDDDSGSKRKRKLSFHSPNASSIRKAISYEQLSLASVGSVERLEGKIVGMNPPQFASINEFKYCTLKLYFTQLLPNVPDKVLVPGVNCIEIVIPTRERICELFGVLNCQSDKISDILLLEKPDRISVEVERILWDNDKTASPGMAVWSLKNISTDTQAQAQVQVPAQSSASIDPSRTRMSKMARKDPTIEFCQLGLDTFETKYITMFGMLVSCSFDKPAFISFVFSDFTKNDIVQNYLYDRYLIDYENKLELNEGFKAIMYKNQFETFDSKLRKIFNNGLRDLQNGRDENLSQYGIVCKMNIKVKMYNGKLNAIVRECEPVPHSQISSIASPSQCEHLRLFYQRAFKRIGESAISRYFEEYRRFFPIHRNGSHLAKLRFDEVKHEPKKSPTTPALAEHIPDLNADVSSFDVKFTDISSLLDSSARLPRPQQTHKSNTLYSCEGRIIAIEYHASDLCFHITNELPLLQTRGLAPERVLQLHIITSKNFAYFFNRSSAYLQRQPLEEKYTQLAQFLGHSFKFNITSSLTLFPDTTVALQIWCPIECTFRELQQQLAHPKVAAAPDSGSLDCAINATVNPLRLLAAQNGVTVKKEEDNDDDAGAVPTS
partner: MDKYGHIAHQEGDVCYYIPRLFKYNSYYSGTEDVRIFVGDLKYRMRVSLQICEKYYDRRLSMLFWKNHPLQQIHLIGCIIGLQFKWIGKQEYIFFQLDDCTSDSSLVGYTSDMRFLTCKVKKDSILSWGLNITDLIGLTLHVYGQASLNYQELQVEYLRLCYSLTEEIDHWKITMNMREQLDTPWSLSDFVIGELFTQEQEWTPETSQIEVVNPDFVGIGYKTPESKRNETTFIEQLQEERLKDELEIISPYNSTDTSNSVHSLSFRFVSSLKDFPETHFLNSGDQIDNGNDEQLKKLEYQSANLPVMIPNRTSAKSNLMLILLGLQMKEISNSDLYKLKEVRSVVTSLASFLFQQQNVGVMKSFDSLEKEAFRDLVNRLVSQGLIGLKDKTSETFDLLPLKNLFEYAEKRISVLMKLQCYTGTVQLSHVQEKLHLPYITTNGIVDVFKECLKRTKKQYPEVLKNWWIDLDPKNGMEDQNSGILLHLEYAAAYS

Variants of: B1
Conditions: with stn1_yeast STN1, P38960

Effect of a mutation on the interaction, disrupting interaction strength:
C383S;L401A
C383A;M463A
P371S;C383S
C383S;Y388A

From IntAct's records for PubMed 23177925
